The data set addresses T1, CasEnd-9 (synthetic construct).
T1 chain: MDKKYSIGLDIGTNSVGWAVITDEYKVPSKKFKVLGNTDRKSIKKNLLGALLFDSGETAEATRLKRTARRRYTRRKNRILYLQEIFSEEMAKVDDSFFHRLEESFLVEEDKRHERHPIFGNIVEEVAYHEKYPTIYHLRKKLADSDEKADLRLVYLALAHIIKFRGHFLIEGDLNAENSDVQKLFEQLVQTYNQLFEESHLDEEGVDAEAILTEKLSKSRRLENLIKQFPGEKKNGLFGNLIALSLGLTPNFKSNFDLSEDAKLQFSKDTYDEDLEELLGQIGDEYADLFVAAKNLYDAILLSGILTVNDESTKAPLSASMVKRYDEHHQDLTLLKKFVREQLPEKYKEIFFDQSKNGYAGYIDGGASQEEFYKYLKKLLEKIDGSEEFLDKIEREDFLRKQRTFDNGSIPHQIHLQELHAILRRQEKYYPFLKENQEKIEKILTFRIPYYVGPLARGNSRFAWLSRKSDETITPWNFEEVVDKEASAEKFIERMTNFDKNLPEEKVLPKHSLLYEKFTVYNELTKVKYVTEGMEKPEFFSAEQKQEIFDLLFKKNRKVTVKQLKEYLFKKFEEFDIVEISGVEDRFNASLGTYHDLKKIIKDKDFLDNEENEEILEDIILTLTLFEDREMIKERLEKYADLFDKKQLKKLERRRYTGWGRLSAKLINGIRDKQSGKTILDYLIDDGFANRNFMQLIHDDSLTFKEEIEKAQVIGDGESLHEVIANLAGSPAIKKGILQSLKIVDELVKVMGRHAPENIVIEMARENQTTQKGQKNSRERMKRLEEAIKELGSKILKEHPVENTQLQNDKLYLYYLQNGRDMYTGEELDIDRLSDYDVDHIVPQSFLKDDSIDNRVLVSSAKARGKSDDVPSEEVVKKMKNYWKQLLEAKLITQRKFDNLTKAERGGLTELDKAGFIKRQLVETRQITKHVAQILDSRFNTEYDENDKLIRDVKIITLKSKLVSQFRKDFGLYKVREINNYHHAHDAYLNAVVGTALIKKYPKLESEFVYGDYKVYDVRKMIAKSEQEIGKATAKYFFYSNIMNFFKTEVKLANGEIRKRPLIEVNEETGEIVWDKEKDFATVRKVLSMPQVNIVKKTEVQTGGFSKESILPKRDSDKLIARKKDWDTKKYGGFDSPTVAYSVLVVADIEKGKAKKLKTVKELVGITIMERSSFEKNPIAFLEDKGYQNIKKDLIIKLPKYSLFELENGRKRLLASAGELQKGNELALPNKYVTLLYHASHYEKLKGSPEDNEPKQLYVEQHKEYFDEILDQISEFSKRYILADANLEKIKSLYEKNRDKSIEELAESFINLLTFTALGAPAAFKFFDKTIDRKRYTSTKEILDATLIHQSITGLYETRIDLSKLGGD
Briefly: cell_activity; +++; HEK293T; PAM not stated. The procedure, abridged:
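BFP-to-GFP conversion via reverse transcriptase fusion with each Cas endonuclease plus template RNA: 200 ng of each plasmid nucleofected into 250,000 BFP-expressing HEK293T cells (program DS-150). Percent GFP+ cells by flow cytometry at day 4 measured editing.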

B1: BFP-to-GFP template RNA ; BFP reporter protospacer (ssRNA ; dsDNA)
RNA: GCCGAAGCACUGCACGCCGUGUUUUAGAGCUAGAAAUAGCAAGUUAAAAUAAGGCUAGUCCGUUAUCAACUUGAAAAAGUGGCACCGAGUCGGUGCACCCUGACGUACGGCGUGCAGUGCUU
DNA 1: GCCGAAGCACTGCACGCCGT
DNA 2: ACGGCGTGCAGTGCTTCGGC
Regarding B1, the activity was ≥ 100 % of reference.

The values are drawn from patent US20250092426, “CAS ENDONUCLEASES AND RELATED METHODS” (Flagship Pioneering Innovations VII, LLC, published 2025).
